Reference: IntAct's records for PubMed 20739938

B1: Regulator of chromosome condensation (Homo sapiens), P18754 (parent)
chain: MSPKRIAKRRSPPADAIPKSKKVKVSHRSHSTEPGLVLTLGQGDVGQLGLGENVMERKKPALVSIPEDVVQAEAGGMHTVCLSKSGQVYSFGCNDEGALGRDTSVEGSEMVPGKVELQEKVVQVSAGDSHTAALTDDGRVFLWGSFRDNNGVIGLLEPMKKSMVPVQVQLDVPVVKVASGNDHLVMLTADGDLYTLGCGEQGQLGRVPELFANRGGRQGLERLLVPKCVMLKSRGSRGHVRFQDAFCGAYFTFAISHEGHVYGFGLSNYHQLGTPGTESCFIPQNLTSFKNSTKSWVGFSGGQHHTVCMDSEGKAYSLGRAEYGRLGLGEGAEEKSIPTLISRLPAVSSVACGASVGYAVTKDGRVFAWGMGTNYQLGTGQDEDAWSPVEMMGKQLENRVVLSVSSGGQHTVLLVKDKEQS

Variants of: B1
Conditions: with h2b11, P02281

effect of a mutation on the interaction | Variant
disrupting interaction | MSPKRIAKRRSPPADAIPKSKKVKVSHRSHSTEPGLVLTLGQGDVGQLGLGENVMERKKPALVSIPEDVVQAEAGGMHTVCLSKSGQVYSFGCNDEGALGRDTSVEGSEMVPGKVELQEKVVQVSAGDSHTAALTDDGRVFLWGSFRDNNGVIGLLEPMKKSMVPVQVQLDVPVVKVASGNDHLVMLTADGDLYTLGCGEQGQLGRVPELFANRGGRQGLERLLVPKCVMLKSRGSAGHVRFQDAFCGAYFTFAISHEGHVYGFGLSNYHQLGTPGTESCFIPQNLTSFKNSTKSWVGFSGGQHHTVCMDSEGKAYSLGRAEYGRLGLGEGAEEKSIPTLISRLPAVSSVACGASVGYAVTKDGRVFAWGMGTNYQLGTGQDEDAWSPVEMMGKQLENRVVLSVSSGGQHTVLLVKDKEQS [R237A]
disrupting interaction | MSPKRIAKRRSPPADAIPKSKKVKVSHRSHSTEPGLVLTLGQGDVGQLGLGENVMERKKPALVSIPEDVVQAEAGGMHTVCLSKSGQVYSFGCNDEGALGRDTSVEGSEMVPGKVELQEKVVQVSAGDSHTAALTDDGRVFLWGSFRDNNGVIGLLEPMKKSMVPVQVQLDVPVVKVASGNDHLVMLTADGDLYTLGCGEQGQLGRVPELFANRGGRQGLERLLVPKCVMLASRGSRGHVRFQDAFCGAYFTFAISHEGHVYGFGLSNYHQLGTPGTESCFIPQNLTSFKNSTKSWVGFSGGQHHTVCMDSEGKAYSLGRAEYGRLGLGEGAEEKSIPTLISRLPAVSSVACGASVGYAVTKDGRVFAWGMGTNYQLGTGQDEDAWSPVEMMGKQLENRVVLSVSSGGQHTVLLVKDKEQS [K232A]
disrupting interaction | MSPKRIAKRRSPPADAIPKSKKVKVSHRSHSTEPGLVLTLGQGDVGQLGLGENVMERKKPALVSIPEDVVQAEAGGMHTVCLSKSGQVYSFGCNDEGALGRDTSVEGSEMVPGKVELQEKVVQVSAGDSHTAALTDDGRVFLWGSFRDNNGVIGLLEPMKKSMVPVQVQLDVPVVKVASGNDHLVMLTADGDLYTLGCGEQGQLGRVPELFANRGGRQGLERLLVPKCVMLASAGSAGHVRFQDAFCGAYFTFAISHEGHVYGFGLSNYHQLGTPGTESCFIPQNLTSFKNSTKSWVGFSGGQHHTVCMDSEGKAYSLGRAEYGRLGLGEGAEEKSIPTLISRLPAVSSVACGASVGYAVTKDGRVFAWGMGTNYQLGTGQDEDAWSPVEMMGKQLENRVVLSVSSGGQHTVLLVKDKEQS [K232A;R234A;R237A]
disrupting interaction | MSPKRIAKRRSPPADAIPKSKKVKVSHRSHSTEPGLVLTLGQGDVGQLGLGENVMERKKPALVSIPEDVVQAEAGGMHTVCLSKSGQVYSFGCNDEGALGRDTSVEGSEMVPGKVELQEKVVQVSAGDSHTAALTDDGRVFLWGSFRDNNGVIGLLEPMKKSMVPVQVQLDVPVVKVASGNDHLVMLTADGDLYTLGCGEQGQLGRVPELFANRGGRQGLERLLVPKCVMLKSAGSRGHVRFQDAFCGAYFTFAISHEGHVYGFGLSNYHQLGTPGTESCFIPQNLTSFKNSTKSWVGFSGGQHHTVCMDSEGKAYSLGRAEYGRLGLGEGAEEKSIPTLISRLPAVSSVACGASVGYAVTKDGRVFAWGMGTNYQLGTGQDEDAWSPVEMMGKQLENRVVLSVSSGGQHTVLLVKDKEQS [R234A]
